According to the supplement of paper PMC10567573:

B1: FUNDC2 (parent)
chain: YIKVDWQRVEKDMKKAKEQLKIRK
B2: KCNA1 (parent)
chain: LKASMRELGLLIFFLFIGVILFSS

Variants of: B1
Assay: protein stability index of a GFP-peptide fusion (GPS, HEK-293T) (PSI 1-6); higher = more stable
Settings: c terminus: a fixed tail appended
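Further: lentivirally expressed fusions sorted by FACS into six bins by GFP to DsRed ratio, PSI derived from sequencing read proportions per bin multiplied by bin number.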

| Variant | protein stability index |
| --- | --- |
| WIKVDWQRVEKDMKKAKEQLKIRK [Y1W] | 1.99 |
| GIKVDWQRVEKDMKKAKEQLKIRK [Y1G] | 4.26 |
| QIKVDWQRVEKDMKKAKEQLKIRK [Y1Q] | 3.49 |
| LIKVDWQRVEKDMKKAKEQLKIRK [Y1L] | 3.22 |
| HIKVDWQRVEKDMKKAKEQLKIRK [Y1H] | 3.34 |
| AIKVDWQRVEKDMKKAKEQLKIRK [Y1A] | 2.98 |
| DIKVDWQRVEKDMKKAKEQLKIRK [Y1D] | 4.17 |
| MIKVDWQRVEKDMKKAKEQLKIRK [Y1M] | 2.63 |
| SIKVDWQRVEKDMKKAKEQLKIRK [Y1S] | 3.11 |
| VIKVDWQRVEKDMKKAKEQLKIRK [Y1V] | 2.53 |
| PIKVDWQRVEKDMKKAKEQLKIRK [Y1P] | 3.81 |
| NIKVDWQRVEKDMKKAKEQLKIRK [Y1N] | 3.7 |
| RIKVDWQRVEKDMKKAKEQLKIRK [Y1R] | 3.6 |
| TIKVDWQRVEKDMKKAKEQLKIRK [Y1T] | 3.07 |
| KIKVDWQRVEKDMKKAKEQLKIRK [Y1K] | 3.09 |
| EIKVDWQRVEKDMKKAKEQLKIRK [Y1E] | 4.15 |
| FIKVDWQRVEKDMKKAKEQLKIRK [Y1F] | 1.85 |
| IIKVDWQRVEKDMKKAKEQLKIRK [Y1I] | 2.21 |

| Variant | protein stability index |
| --- | --- |
| YDKVDWQRVEKDMKKAKEQLKIRK [I2D] | 3.58 |
| YNKVDWQRVEKDMKKAKEQLKIRK [I2N] | 3.6 |
| YKKVDWQRVEKDMKKAKEQLKIRK [I2K] | 3.35 |
| YGKVDWQRVEKDMKKAKEQLKIRK [I2G] | 3.6 |
| YFKVDWQRVEKDMKKAKEQLKIRK [I2F] | 2.74 |
| YAKVDWQRVEKDMKKAKEQLKIRK [I2A] | 3.35 |
| YVKVDWQRVEKDMKKAKEQLKIRK [I2V] | 1.83 |
| YMKVDWQRVEKDMKKAKEQLKIRK [I2M] | 4.03 |
| YTKVDWQRVEKDMKKAKEQLKIRK [I2T] | 2.37 |
| YPKVDWQRVEKDMKKAKEQLKIRK [I2P] | 2.54 |
| YQKVDWQRVEKDMKKAKEQLKIRK [I2Q] | 1.75 |
| YSKVDWQRVEKDMKKAKEQLKIRK [I2S] | 3.37 |
| YLKVDWQRVEKDMKKAKEQLKIRK [I2L] | 2.26 |
| YWKVDWQRVEKDMKKAKEQLKIRK [I2W] | 2.96 |
| YEKVDWQRVEKDMKKAKEQLKIRK [I2E] | 4.42 |
| YCKVDWQRVEKDMKKAKEQLKIRK [I2C] | 1.93 |
| YRKVDWQRVEKDMKKAKEQLKIRK [I2R] | 2.53 |

Variants of: B2
Assay: as above
Settings: c terminus: a fixed tail appended

| Variant | protein stability index |
| --- | --- |
| LKASMRELGLLIFFLFIGVIWFSS [L21W] | 2.35 |
| LKASMRELGLLIFFLFIGVITFSS [L21T] | 2.68 |
| LKASMRELGLLIFFLFIGVIVFSS [L21V] | 2.12 |
| LKASMRELGLLIFFLFIGVIRFSS [L21R] | 3.21 |
| LKASMRELGLLIFFLFIGVIYFSS [L21Y] | 1.91 |
| LKASMRELGLLIFFLFIGVISFSS [L21S] | 3.5 |
| LKASMRELGLLIFFLFIGVILFST [S24T] | 2 |
| LKASMRELGLLIFFLFIGVILFSE [S24E] | 2.02 |
| LKASMRELGLLIFFLFIGVILFSV [S24V] | 1.85 |
| LKASMRELGLLIFFLFIGVILFSW [S24W] | 1.84 |
| LKASMRELGLLIFFLFIGVILFSI [S24I] | 1.23 |
| LKASMRELGLLIFFLFIGVILFSY [S24Y] | 2.06 |
| LKASMRELGLLIFFLFIGVILFSQ [S24Q] | 2.11 |
| LKASMRELGLLIFFLFIGVILFSC [S24C] | 1.19 |
| LKASMRELGLLIFFLFIGVILFSP [S24P] | 3.1 |
| LKASMRELGLLIFFLFIGVILFSH [S24H] | 2 |
| LKASMRELGLLIFFLFIGVILFSD [S24D] | 2 |
| LKASMRELGLLIFFLFIGVILFSN [S24N] | 2.83 |
| LKASMRELGLLIFFLFIGVILFSA [S24A] | 2.04 |
| LKASMRELGLLIFFLFIGVILFSL [S24L] | 1.47 |

| Variant | protein stability index |
| --- | --- |
| LKASMRELGLLIFFLFIGVILFSK [S24K] | 3.45 |
| LKASMRELGLLIFFLFIGVILFSF [S24F] | 2.02 |
| LKASMRELGLLIFFLFIGVILFSM [S24M] | 2.42 |
| LKASMRELGLLIFFLFIGVILTSS [F22T] | 3.72 |
| LKASMRELGLLIFFLFIGVILHSS [F22H] | 3.76 |
| LKASMRELGLLIFFLFIGVILLSS [F22L] | 2.25 |
| LKASMRELGLLIFFLFIGVILASS [F22A] | 2.33 |
| LKASMRELGLLIFFLFIGVILQSS [F22Q] | 3.69 |
| LKASMRELGLLIFFLFIGVILISS [F22I] | 2.43 |
| LKASMRELGLLIFFLFIGVILWSS [F22W] | 2.75 |
| LKASMRELGLLIFFLFIGVILYSS [F22Y] | 1.93 |
| LKASMRELGLLIFFLFIGVILSSS [F22S] | 2.95 |
| LKASMRELGLLIFFLFIGVILPSS [F22P] | 2.64 |
| LKASMRELGLLIFFLFIGVILMSS [F22M] | 2.98 |
| LKASMRELGLLIFFLFIGVILGSS [F22G] | 1.81 |
| LKASMRELGLLIFFLFIGVILVSS [F22V] | 1.8 |
| LKASMRELGLLIFFLFIGVILDSS [F22D] | 2.83 |
| LKASMRELGLLIFFLFIGVILESS [F22E] | 2.63 |
| LKASMRELGLLIFFLFIGVILNSS [F22N] | 3.37 |
| LKASMRELGLLIFFLFIGVILKSS [F22K] | 2.81 |

| Variant | protein stability index |
| --- | --- |
| LKASMRELGLLIFFLFIGVILRSS [F22R] | 2.24 |
| LKASMRELGLLIFFLFIGVILFRS [S23R] | 3.62 |
| LKASMRELGLLIFFLFIGVILFDS [S23D] | 2.75 |
| LKASMRELGLLIFFLFIGVILFVS [S23V] | 2 |
| LKASMRELGLLIFFLFIGVILFHS [S23H] | 2.15 |
| LKASMRELGLLIFFLFIGVILFYS [S23Y] | 2.2 |
| LKASMRELGLLIFFLFIGVILFKS [S23K] | 3.15 |
| LKASMRELGLLIFFLFIGVILFNS [S23N] | 2.41 |
| LKASMRELGLLIFFLFIGVILFPS [S23P] | 2.42 |
| LKASMRELGLLIFFLFIGVILFAS [S23A] | 2.19 |
| LKASMRELGLLIFFLFIGVILFIS [S23I] | 1.85 |
| LKASMRELGLLIFFLFIGVILFGS [S23G] | 2.03 |
| LKASMRELGLLIFFLFIGVILFTS [S23T] | 1.44 |
| LKASMRELGLLIFFLFIGVILFCS [S23C] | 1.67 |
| LKASMRELGLLIFFLFIGVILFLS [S23L] | 2.19 |
| LKASMRELGLLIFFLFIGVILFWS [S23W] | 2.38 |
| LKASMRELGLLIFFLFIGVILFQS [S23Q] | 2.13 |
| LKASMRELGLLIFFLFIGVILFMS [S23M] | 2.35 |
| LKASMRELGLLIFFLFIGVILFFS [S23F] | 2.15 |
